Experimental data reported in PMC5744401.

Columns and labels:
Conditions in all cases: EMSA: 0.3 nM DIG-labeled probe; buffer, salt, pH and temperature as in Zhu et al. 2016 (not given)
[1] = biological target: T1, His6-AvaR1 (Streptomyces avermitilis) (UniProt Q82H41); experiment: EMSA
T1 sequence: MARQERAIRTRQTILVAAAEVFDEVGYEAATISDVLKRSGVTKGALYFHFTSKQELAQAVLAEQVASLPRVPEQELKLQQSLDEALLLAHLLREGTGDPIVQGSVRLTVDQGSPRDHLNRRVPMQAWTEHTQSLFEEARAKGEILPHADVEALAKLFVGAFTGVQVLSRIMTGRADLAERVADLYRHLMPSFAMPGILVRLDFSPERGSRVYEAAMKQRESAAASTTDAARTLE

[2] = biological target: T1, His6-AvaR1 (Streptomyces avermitilis); experiment: competition EMSA
[3] = biological target: T2, His6-AvaR2 (Streptomyces avermitilis) (UniProt Q82H44); experiment: EMSA
T2 sequence: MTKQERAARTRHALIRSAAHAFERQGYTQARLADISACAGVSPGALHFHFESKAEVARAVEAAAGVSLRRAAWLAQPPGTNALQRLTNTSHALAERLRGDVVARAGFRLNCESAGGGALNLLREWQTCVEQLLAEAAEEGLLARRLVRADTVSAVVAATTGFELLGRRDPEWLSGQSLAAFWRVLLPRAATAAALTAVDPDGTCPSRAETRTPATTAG

[4] = biological target: T1, His6-AvaR1 (Streptomyces avermitilis); experiment: DNase I footprinting
[5] = biological target: T3, His6-AvaR1;GST-AvaR2 (Streptomyces avermitilis;Streptomyces avermitilis) (UniProt Q82H41+Q82H44); experiment: EMSA
T3 sequence 1: T1 sequence
T3 sequence 2: T2 sequence

[6] = biological target: T4, GST-AvaR2 (Streptomyces avermitilis) (UniProt Q82H44); experiment: EMSA
T4 sequence: T2 sequence

[7] = system: His6-AvaR1 (Streptomyces avermitilis); experiment: competition EMSA

| Substance | binding [1] | further results |
| --- | --- | --- |
| ACTGATGCGCGAGAAAACCGCACAAGCGGTTTGTTAAAGTTGCTGGACCCCCATCAGCAACGGAGCGCCCGATGGTCAAGCAGGTCAGACAGGAACGCGCGATCCGCACGCGCAACGCCTTGATCGAGTCC (double strand) [avaR3p] | binds | binding signal (affinity rank of 5 (1 = strongest)) [2]: 1 |
| ATCCACGCTTCTCGCTCCGCCCAGTGTACGGCGCCGCGCGGACAGCGGCCGACCGGTTTTCCGGGGCCCGCGCGGAAGGCGGCAGGGGGGCCGGTACGGGCCGCGGACTGACCCGAATGGCGA (double strand) [ileSp] | no binding | – |
| CCCTCGACCGGATTGTGGGAGCATCGTGCCATTCCAAGTGGCCGCTATGTGACCGAGTGCCCCCGATCGGCCCCAGATGGCGGGTTAAGGCTAATTAAGGAAACCCCCTGACGCCCCCTGACGGGGTCTGCTCACCCGCACGGCATGATGGCCCCCATGCGTGCGGTGGTGCAGAGGGTGGACGGCGCGAGCGTCGTCGTGGAAGGCGAGAACGGGCCGGAGACGGTCGGTGAGATCAACGGCGAGG (double strand) [amfCp] | binds | – |
| CCGCTGGAGTCTGAGAAGCCATGGAAGCATTCACCACGCACACCGGCCGGGCCGTCCCGCTGCGCCGCAGCAACGTCGACACCGACCAGATCATCCCCGCCCACTGGCTCAAGAAGGTCACCAGGGACGGTTTCGAGGACGGGCTGTTCGAGGCCTGGCGCAAGGACGAGTCCTTCATCCTCAACCG (double strand) [leuDp] | binds | – |
| CTCGGGCGTGATCCGACTGCGGCGCACCGTTGCGGTCTCAGTCATCGCACTCGCCTCTCCTGCTTCGAACGACACGGTTTCCGGTTGCGTACGTCTACCCGTACGTCTTCCTCGTACCTTCCTGAAGATACCCCGAGAGCGAGCGAAACGAAACCGTTTCGTACGTGTCGTGGGTCACGCACATGTTTTCACAAGTTGCCGGGGCCCGTCGCGCGGAAAAGCATGGGTTAGGTGAACCCCGAGTCCGA (double strand) [aveTp] | binds | binding [3]: binds |
| GAACTGGGTGACGAGGAGCTTCTCGCGAAGCTTCGCGAAGCCAAGGAAGAGCTGTTCAACCTCCGCTTCCAGGCGGCGACCGGTCAGCTCGAGAACCACGGTCGGCTCAAGGCCGTCCGCAAGGACATCGCGCGGATCTACACCCTGATGCGTGAGCGCGAGCTGGGCATCGAGACGGTGGAGAGCGCCTGATGAGCGAGAGCAACGTGACTGAGACCAACGAGCAGCGCGGTTTCCGCAAGACCCGTGAGGGTCTGGTCGTCAGCGACAAGATGGACAA (double strand) [rpsQp] | binds | – |
| GAGCTTCTCCCTGGCTTGGGACGGGCTGACGTGAACCACGGGACCCGAGAAGGGCTGAGGAAGGGCTGGAGAGCTGCGGAAGAGCTGCGGAGGAGCTGCGGAAGAGCTGCGGAAGAGCTGGAGGTCAAAGATACGTACTAGACGGTTTTGTCTTCAAGTCCCTCTTGCGGTCAAGGGTCATCCCTTACAAGGGAGTTGGGGGTGAGATATGTGTTTTTGAGTGGTTTGTGAGAGGGCG (double strand) [acop] | binds | binding signal (affinity rank of 5 (1 = strongest)) [2]: 4 |
| GCCACACGCACCCTCCGCACCAGCCCGACCAGCGGGACACCGTCCCGACCAGTGGGACACCGTCCGGATCGCGGGACACCGTCCCGACCAGCGGGAAAAGACCAAGCGGTTCGCACCCTAACAGCGACGATCCTCCACTCCACCGCCGAAGACAGGCCCGGTCCTGACCGGGACGATAAAACCAGCTGAACGGTTTTTCAATGCTCCCCTCGCCCTCTCACAAACCACTCAAAAACACATATCTCACCCCCAACTCCC (double strand) [avaR1 footprint probe] | – | binding [4]: binds |
| GCCACACGCACCCTCCGCACCAGCCCGACCAGCGGGACACCGTCCCGACCAGTGGGACACCGTCCGGATCGCGGGACACCGTCCCGACCAGCGGGAAAAGACCAAGCGGTTCGCACCCTAACAGCGACGATCCTCCACTCCACCGCCGAAGACAGGCCCGGTCCTGACCGGGACGATAAAACCAGCTGAACGGTTTTTCAATGCTCCCCTCGCCCTCTCACAAACCACTCAAAAACACATATCTCACCCCCAACTCCC (double strand) [avaR1p] | binds | binding signal (affinity rank of 5 (1 = strongest)) [2]: 5 |
| GCCCTCGTCCCAGTAGAAGACGGGTCGCCGGGTTCCTGGGCCCGTGGCCCGCATGCGCAGCTCGACCTGGGTGATCACCTCGGTCTGCGTGGTCTCGACTCATGACCGCGCCGGTCAGCGCCTCCACAAGTCGTCCAAGTTTCAGCCGGTGGCAGACATTCCGTGA (double strand) [wbpAp] | no binding | – |
| GCGGAAGGCGGCTGACCAGAGGGCCCTGCAAGAAACCAGCATAGCGGTTTGTTTGTGGCGCCCGTCACCACTTCGCCGACGCGGTACCCCCGGAGGCCAGGCACCGGTCACTGCCGCCGCCCGCGCTGCCCGCTGCCGCCGCCGAGCCGTACCGCGCGGCTCGGGCGTCGCGCATGCCGTCAGGCCCCCGGCACCTCCCTG (double strand) [avaR2p] | binds | binding signal (affinity rank of 5 (1 = strongest)) [2]: 2 |
| GCTCTTCGTGCTCACCGTCTTCGTCGCGTACGCGTACGTATGGCGGCGCGGCGGTCTGGAATGGGACTGAGGGGCCTTTAACGACATGGGACTCGAAGAAAAGCTGCCGAGCGGATTCCTGCTGACGAC (double strand) [nuoB1p] | binds | – |
| GGGTAGTGTCAAGGTCGCTGACTTTGATGATTAACTGATGATCGTGGGATTCTGAGGTGGTGTTCGCGAGGGTGAAGGAGTTCCTTCCTGGAGACATCCGTGCCCCGGATGGCGGTCCACAATTCACGAGTGGGATGCGCAGTGGGTCGCGTGCTGCAACACCGAATGGAATACCGGGTGACCGGTATGTATGGC (double strand) [aveRp2] | binds | binding [5]: binds; binding [6]: binds |
| GTGCTGCAACACCGAATGGAATACCGGGTGACCGGTATGTATGGCGGTGCGGTGACCGCGGAAACGGCTCGGGCGGATTGACCGCCCGAGCCGGAGGAGAAGGCCATCGCCGCACCCGCGAGCAAGGGTCCAGAGGGACGGCGGCGCGAAGGCGGCCTGGCCTATGGGGAGTTCGGAGGACCAGGCGTCA (double strand) [aveRp] | binds | binding signal (affinity rank of 5 (1 = strongest)) [2]: 3 |
| TCAACCACCGTCATGTAGGGCGTACGCCCTTGCTGTACGGACCCGGTGTGTTGACGCCCGGTGCCGCGAGCGCACCCCCGCCCGCTCACGGCACCGGACTTCTCGGTGTTCCGGATGACGTCGTGCAGACGCGTGACAACTGCGCCAGTGCTGGTGCTGTGCAGCGTGTTCATCTCGCGCCCCCCGTCGTGGAGTCCGGTATCCCTGCGGTCTTGCCCTGCTGTCCTGCGGTGGTGCTGCCTTGCTTGTGTCGAAAAGCTTGCC (double strand) [probe 1] | no binding | – |
| TGCGGTGACCCCCATCTCGATCAGTTCGGTGGGGTGAAACCGCGTGAGCCGGTTGTCGTCCAGGCTCTGGGGCCCGGTGTCCGCGAGGGCGGGGAACGCCCTGAGGGAGGGGTAGGCATAAGGAAGGTACTCGGCGAGGCCGCTGCTGTGGTTGATCAACATCCGGACCGTGATCGCGTCACCGCGTTCTCCGGGAACCAGCCTCGGAAGGTACCGGCCGATCGGAGTGTCAAGACCGATCAGGTCACCGACGAGGAGTGCAACGC (double strand) [2051p] | no binding | – |
| TTCAACTGACCGTCCCGCACGTAGAGTTCTGGAGTCACCCGCACATGACCGTACGCAAGAACCAGGCGACCCTGACGGCCGACGAGAAGCGGCGCTTCGTCGACGCGCTCGTGGCGCTCAAGCGCAGTGGCCGCTACGACGAGTTCGTCACGACCCACAACGCCTTCATCATGGGCGACACCGACAGCGGCGAACGCACGGGCCATCGTTCGCCTTCCT (double strand) [melC2p] | no binding | – |
| TTGTGCCCTGTGTGTGCGCCATGGGCATACCGTCCGGGCGGAATGCCGGGTTCCGGCATCGAACGTCGTGCGATTCGGCAGTTCGAGCGATACCGGATGGTTTCGCTTCTGTTCGATTGCGGGGTGTGGTGTAGGCCAGTACGCGAAACTCGCCGGAAAAGGGGCACCCGCCGCCCGTAGGCTGGGAGGCAT (double strand) [3560p] | binds | – |
| avaR1p | – | binding signal (affinity rank of 5 (1 = strongest)) [7]: 5 |
| avaR2p | – | binding signal (affinity rank of 5 (1 = strongest)) [7]: 2 |
| avaR3p | – | binding signal (affinity rank of 5 (1 = strongest)) [7]: 1 |
| aveRp | – | binding signal (affinity rank of 5 (1 = strongest)) [7]: 3 |
